Source: patent publication US20240383993A1

Legend:
[1] = biological target: His-tagged cynomolgus 4-1BB protein (cynomolgus) (UniProt A9YYE7); assay: ELISA, coated His-tagged 4-1BB, anti-human IgG-HRP
[2] = biological target: human 4-1BB expressed on cells (human) (UniProt Q07011); assay: flow cytometry on CHO-K1/hu4-1BB cells, anti-human Fc-Alexa Fluor 633
Chain of human 4-1BB expressed on cells (human) (Q07011 24-255): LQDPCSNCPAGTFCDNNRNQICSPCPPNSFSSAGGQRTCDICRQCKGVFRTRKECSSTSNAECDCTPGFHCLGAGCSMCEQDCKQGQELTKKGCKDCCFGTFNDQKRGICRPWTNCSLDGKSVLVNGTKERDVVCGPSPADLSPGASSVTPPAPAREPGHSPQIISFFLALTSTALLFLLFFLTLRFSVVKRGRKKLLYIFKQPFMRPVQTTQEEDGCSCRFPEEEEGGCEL

Chain of His-tagged cynomolgus 4-1BB protein (cynomolgus) (A9YYE7 entry or part of it): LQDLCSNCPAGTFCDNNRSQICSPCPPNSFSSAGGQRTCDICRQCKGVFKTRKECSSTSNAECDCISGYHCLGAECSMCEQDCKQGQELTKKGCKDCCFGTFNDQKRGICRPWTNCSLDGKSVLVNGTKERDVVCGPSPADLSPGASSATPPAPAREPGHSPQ

EC50 [1] | Max (MFI) [2] | Binder
> 30 nM |  | VV02-1LP-288 (Fc fusion, not shown: a dimerising Fc or GST; small tags and cut ends) VHH: EVQVVESGGGLVQPGGSLRLSCAASGSSLDYSAIGWFRQAPGKEREGVLCISSSGDVTIYADSVKGRFTISRDNAKNTVYLQMNSLKPEDTAVYYCVAPRICSTYSSDDYWGQGTQVTVSS
> 30 nM |  | VV02-1LP-417 (Fc fusion, not shown: a dimerising Fc or GST; small tags and cut ends) VHH: QLQLVESGGGLVQPGGSLRLSCAASGFALDYSAIGWFRQAPGKEREGVLCISSSGDVTIYADSVKGRFTISRDNAKNTVYLQMNSLKPEDTAVYYCVAPRICSTYSSDDYWGQGTQVTVSS
 | 233 MFI | VV02-1SP (1)-73 huNb_1_1 (Fc fusion, not shown: a dimerising Fc or GST) VHH: EVQLLESGGGLVQPGGSLRLSCAASGFTFSSSAMSWARQAPGKGLEWVSSIYSSGKTYYVESVKGRFTISRDNSKNTLYLQMNSLRAEDTAVYYCAKWKTLRVGVWDESDYWGQGTLVTVSS
